Results taken from the supplement of paper PMC11316812.
± gives the standard deviation of the averaged measurements.

Key:
MCF7 = test: percentage of EdU-negative (G0-arrested) nuclei per well, 72 h; higher = more G0 arrest; conditions: reference: sequence is the full UniProt precursor, the tested protein was the secreted form or ectodomain
hTERT-HMEC = test: as above; conditions: reference: sequence is the full UniProt precursor, the tested protein was the secreted form or ectodomain
[1] = protein concentration 0.0225 µM
[2] = protein concentration 0.0272075 µM
[3] = protein concentration 0.272075 µM
[4] = protein concentration 0.03125 µM
[5] = protein concentration 0.3125 µM
[6] = protein concentration 0.0351429 µM
[7] = protein concentration 0.351429 µM
[8] = protein concentration 0.0107825 µM
[9] = protein concentration 0.107825 µM
[10] = protein concentration 0.019925 µM
[11] = protein concentration 0.19925 µM
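Also: secreted proteins added to cultured cells, EdU pulse at the end, nuclei found by Hoechst imaging, EdU status from nuclear versus surrounding ring intensity ratio, PBS as neutral control.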

MTARAWASWRSSALLLLLVPGYFPLSHPMTVAGPVGGSLSVQCRYEKEHRTLNKFWCRPPQILRCDKIVETKGSAGKRNGRVSIRDSPANLSFTVTLENLTEEDAGTYWCGVDTPWLRDFHDPIVEVEVSVFPAGTTTASSPQSSMGTSGPPTKLPVHTWPSVTRKDSPEPSPHPGSLFSNVRFLLLVLLELPLLLSMLGAVLWVNRPQRSSRSRQNWPKGENQ
percentage of EdU-negative (MCF7; [1]): 26.2 ± 3.7% | percentage of EdU-negative (MCF7; protein concentration 0.225 µM): 23.5 ± 0.75% | percentage of EdU-negative (hTERT-HMEC; [1]): 5.08 ± 0.64% | percentage of EdU-negative (hTERT-HMEC; protein concentration 0.225 µM): 12.4 ± 10%

MTATEALLRVLLLLLAFGHSTYGAECFPACNPQNGFCEDDNVCRCQPGWQGPLCDQCVTSPGCLHGLCGEPGQCICTDGWDGELCDRDVRACSSAPCANNRTCVSLDDGLYECSCAPGYSGKDCQKKDGPCVINGSPCQHGGTCVDDEGRASHASCLCPPGFSGNFCEIVANSCTPNPCENDGVCTDIGGDFRCRCPAGFIDKTCSRPVTNCASSPCQNGGTCLQHTQVSYECLCKPEFTGLTCVKKRALSPQQVTRLPSGYGLAYRLTPGVHELPVQQPEHRILKVSMKELNKKTPLLTEGQAICFTILGVLTSLVVLGTVGIVFLNKCETWVSNLRYNHMLRKKKNLLLQYNSGEDLAVNIIFPEKIDMTTFSKEAGDEEI
percentage of EdU-negative (MCF7; [2]): 27.1 ± 2.7% | percentage of EdU-negative (MCF7; [3]): 26.7 ± 1.4% | percentage of EdU-negative (hTERT-HMEC; [2]): 4.9 ± 0.42% | percentage of EdU-negative (hTERT-HMEC; [3]): 6.02 ± 1.2%

MTCKMSQLERNIETIINTFHQYSVKLGHPDTLNQGEFKELVRKDLQNFLKKENKNEKVIEHIMEDLDTNADKQLSFEEFIMLMARLTWASHEKMHEGDEGPGHHHKPGLGEGTP
percentage of EdU-negative (MCF7; [4]): 26 ± 1.1% | percentage of EdU-negative (MCF7; [5]): 24.6 ± 0.91% | percentage of EdU-negative (hTERT-HMEC; [4]): 5.56 ± 0.9% | percentage of EdU-negative (hTERT-HMEC; [5]): 5.25 ± 0.34%

MTDRQTDTAPSPSYHLLPGRRRTVDAAASRGQGPEPAPGGGVEGVGARGVALKLFVQLLGCSRFGGAVVRAGEAEPSGAARSASSGREEPQPEEGEEEEEKEEERGPQWRLGARKPGSWTGEAAVCADSAPAARAPQALARASGRGGRVARRGAEESGPPHSPSRRGSASRAGPGRASETMNFLLSWVHWSLALLLYLHHAKWSQAAPMAEGGGQNHHEVVKFMDVYQRSYCHPIETLVDIFQEYPDEIEYIFKPSCVPLMRCGGCCNDEGLECVPTEESNITMQIMRIKPHQGQHIGEMSFLQHNKCECRPKKDRARQEKKSVRGKGKGQKRKRKKSRYKSWSVPCGPCSERRKHLFVQDPQTCKCSCKNTDSRCKARQLELNERTCRCDKPRR
percentage of EdU-negative (MCF7; [4]): 27 ± 1.3% | percentage of EdU-negative (MCF7; [5]): 25.1 ± 0.32% | percentage of EdU-negative (hTERT-HMEC; [4]): 5.12 ± 1.2% | percentage of EdU-negative (hTERT-HMEC; [5]): 5.48 ± 0.89%

MTGDCMPVLVLMAAVLTVTGAVPVARLRGALPDARGCHIAQFKSLSPQELQAFKRAKDALEESLLLKDCKCRSRLFPRTWDLRQLQVRERPVALEAELALTLKVLEATADTDPALGDVLDQPLHTLHHILSQLRACIQPQPTAGPRTRGRLHHWLHRLQEAPKKESPGCLEASVTFNLFRLLTRDLNCVASGDLCV [Q8IZI9]
percentage of EdU-negative (MCF7; [6]): 24 ± 2.3% | percentage of EdU-negative (MCF7; [7]): 28.6 ± 4% | percentage of EdU-negative (hTERT-HMEC; [6]): 6.75 ± 0.89% | percentage of EdU-negative (hTERT-HMEC; [7]): 10.9 ± 2.5%

MTGLCGYSAPDMRGLRLIMIPVELLLCYLLLHPVDATSYGKQTNVLMHFPLSLESQTPSSDPLSCQFLHPKSLPGFSHMAPLPKFLVSLALRNALEEAGCQADVWALQLQLYRQGGVNATQVLIQHLRGLQKGRSTERNVSVEALASALQLLAREQQSTGRVGRSLPTEDCENEKEQAVHNVVQLLPGVGTFYNLGTALYYATQNCLGKARERGRDGAIDLGYDLLMTMAGMSGGPMGLAISAALKPALRSGVQQLIQYYQDQKDANISQPETTKEGLRAISDVSDLEETTTLASFISEVVSSAPYWGWAIIKSYDLDPGAGSLEI
percentage of EdU-negative (MCF7; [1]): 26.5 ± 0.29% | percentage of EdU-negative (MCF7; protein concentration 0.225 µM): 30.7 ± 0.48% | percentage of EdU-negative (hTERT-HMEC; [1]): 5.166 ± 0.011% | percentage of EdU-negative (hTERT-HMEC; protein concentration 0.225 µM): 19.7 ± 0.93%

MTILFLTMVISYFGCMKAAPMKEANIRGQGGLAYPGVRTHGTLESVNGPKAGSRGLTSLADTFEHVIEELLDEDQKVRPNEENNKDADLYTSRVMLSSQVPLEPPLLFLLEEYKNYLDAANMSMRVRRHSDPARRGELSVCDSISEWVTAADKKTAVDMSGGTVTVLEKVPVSKGQLKQYFYETKCNPMGYTKEGCRGIDKRHWNSQCRTTQSYVRALTMDSKKRIGWRFIRIDTSCVCTLTIKRGR
percentage of EdU-negative (MCF7; [8]): 26.6 ± 0.45% | percentage of EdU-negative (MCF7; [9]): 28.7 ± 1.2% | percentage of EdU-negative (hTERT-HMEC; [8]): 5.167 ± 0.044% | percentage of EdU-negative (hTERT-HMEC; [9]): 7.06 ± 0.31%

MTILGTTFGMVFSLLQVVSGESGYAQNGDLEDAELDDYSFSCYSQLEVNGSQHSLTCAFEDPDVNITNLEFEICGALVEVKCLNFRKLQEIYFIETKKFLLIGKSNICVKVGEKSLTCKKIDLTTIVKPEAPFDLSVVYREGANDFVVTFNTSHLQKKYVKVLMHDVAYRQEKDENKWTHVNLSSTKLTLLQRKLQPAAMYEIKVRSIPDHYFKGFWSEWSPSYYFRTPEINNSSGEMDPILLTISILSFFSVALLVILACVLWKKRIKPIVWPSLPDHKKTLEHLCKKPRKNLNVSFNPESFLDCQIHRVDDIQARDEVEGFLQDTFPQQLEESEKQRLGGDVQSPNCPSEDVVITPESFGRDSSLTCLAGNVSACDAPILSSSRSLDCRESGKNGPHVYQDLLLSLGTTNSTLPPPFSLQSGILTLNPVAQGQPILTSLGSNQEEAYVTMSSFYQNQ
percentage of EdU-negative (MCF7; [10]): 28.1 ± 1.4% | percentage of EdU-negative (MCF7; [11]): 27.6 ± 2.4% | percentage of EdU-negative (hTERT-HMEC; [10]): 5.3 ± 0.72% | percentage of EdU-negative (hTERT-HMEC; [11]): 5.96 ± 0.062%
